Literature values in paper PMC11987431.

Molecular target: IL-6 receptor (Rattus norvegicus) (UniProt P22273)
Chain of UniProt P22273 (P22273 20-364, chain 1 of 2): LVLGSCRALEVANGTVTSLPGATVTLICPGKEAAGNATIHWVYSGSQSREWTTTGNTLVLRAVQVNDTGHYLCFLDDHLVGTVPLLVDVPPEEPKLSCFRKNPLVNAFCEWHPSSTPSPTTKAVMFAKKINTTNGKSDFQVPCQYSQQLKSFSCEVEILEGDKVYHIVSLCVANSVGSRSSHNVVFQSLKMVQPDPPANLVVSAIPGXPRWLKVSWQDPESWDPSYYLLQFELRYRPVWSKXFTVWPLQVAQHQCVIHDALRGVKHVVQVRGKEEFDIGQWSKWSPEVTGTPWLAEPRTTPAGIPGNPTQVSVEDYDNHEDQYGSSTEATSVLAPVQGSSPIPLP
Chain of UniProt P22273 (P40190 23-618, chain 2 of 2, further chain): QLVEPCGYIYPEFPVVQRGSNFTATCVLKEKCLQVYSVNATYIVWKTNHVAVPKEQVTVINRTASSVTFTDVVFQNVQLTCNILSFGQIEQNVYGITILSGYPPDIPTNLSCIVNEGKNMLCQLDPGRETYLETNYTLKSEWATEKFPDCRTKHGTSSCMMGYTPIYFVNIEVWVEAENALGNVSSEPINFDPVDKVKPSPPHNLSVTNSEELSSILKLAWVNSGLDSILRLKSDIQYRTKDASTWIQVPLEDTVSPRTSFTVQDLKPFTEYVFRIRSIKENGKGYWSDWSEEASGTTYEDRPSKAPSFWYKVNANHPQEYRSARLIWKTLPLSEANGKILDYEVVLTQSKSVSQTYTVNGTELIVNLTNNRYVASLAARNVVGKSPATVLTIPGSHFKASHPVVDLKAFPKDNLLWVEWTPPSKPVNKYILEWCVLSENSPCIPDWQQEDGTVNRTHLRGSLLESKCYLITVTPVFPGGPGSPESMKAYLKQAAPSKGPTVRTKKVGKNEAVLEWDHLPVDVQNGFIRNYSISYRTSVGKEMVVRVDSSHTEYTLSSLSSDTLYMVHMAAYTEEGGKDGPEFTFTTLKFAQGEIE

Chain of IL-6 (P20607 25-211): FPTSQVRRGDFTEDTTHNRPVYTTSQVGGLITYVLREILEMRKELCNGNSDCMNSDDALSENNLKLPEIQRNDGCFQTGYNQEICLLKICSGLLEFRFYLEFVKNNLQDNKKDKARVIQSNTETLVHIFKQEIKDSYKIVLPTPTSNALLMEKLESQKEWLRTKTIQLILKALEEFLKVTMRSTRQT

Substance: IL-6 (from UniProt P20607)
- Kd: 15 pM
